{
  "source": "patent US7521477B2",
  "about": "“Vitamin C derivatives with peptide, preparation method thereof and composition comprising the same” (Peptron Co., Ltd., priority 2003, dated 2009)",
  "key": {"male Hartley guinea pigs [1]": {"tested_on": "male Hartley guinea pigs", "test": "Photosensitization test (Adjuvant & Strip method)", "format": "in vivo", "conditions": "guinea pig, in vivo", "procedure": "A photosensitization test for the compound II-4 was carried out according to an Adjuvant & Strip method using male Hartley guinea pigs. After four sites to be sensitized were selected at the cervical and dorsal skin of the guinea pigs, an emulsion of WFI and FCA were intradermally injected to each of the selected sites. The sensitized sites were stripped only in a degree of inducing weak erythema, and covered with 0.01 PBS (excipient group), the compound II-4 (test group) and CP (chlorpromazine; positive control group) in a non-occlusive manner. After two hours, long wave-length UV light of about 10 J/cm^2 was irradiated to the test substance-applied sites. 24 hrs, 48 hrs and 72 hrs after UV irradiation, signs of photosensitization were investigated."}, "male Hartley guinea pigs [2]": {"tested_on": "male Hartley guinea pigs", "test": "Phototoxicity test", "conditions": "guinea pig, in vivo", "procedure": "Each of the test samples was applied to the skin of guinea pigs, and the guinea pigs were exposed to ultraviolet A (UVA) radiation. Then, potency to induce phototoxicity was evaluated. Induction of phototoxicity, which is an abnormal response of the skin to a photo-stimulus such as ultraviolet or visible light, occurs non-immunologically by a chemical. Unlike the allergic response, the degree of phototoxicity can be expected by sufficient intensity of radiation and drugs.\nCP and 8-MOP were prepared at a final concentration of 10% in DMSO and then diluted to 1%. Each of guinea pigs was fixed on a fixing plate, and the skin of the guinea pig was covered with 50 μl of each of the test samples. Then, the right area of the skin was not exposed to UV light, and the left area of the skin was exposed to UVA light (320 to 380 nm) of 15 J/cm^2, which was irradiated in a distance of about 10 cm for about 2 hrs. 24 hrs, 48 hr and 72 hrs after UVA irradiation, photosensitization in the treatment group was evaluated in comparison with that in the positive control groups."}, "[3]": {"tested_on": "human normal fibroblasts, B16 melanocytes and HaCaT cells", "test": "Cytotoxicity, MTT assay", "format": "cell-based", "conditions": "concentration of 5 mM"}, "male Hartley guinea pigs [4]": {"tested_on": "male Hartley guinea pigs", "conditions": "guinea pig, in vivo", "experimental": "Two weeks after secondary sensitization, topical challenge was carried out, as follows. […] Skin reading was made after removal of the patches."}, "eyes of rabbits": {"tested_on": "eyes of rabbits", "test": "Ocular irritation test", "format": "in vivo, New Zealand White Rabbit", "conditions": "0.1 ml of 1% in 0.01M PBS", "procedure": "The compound II-4 was determined whether inducing ocular irritation or evaluated for the degree of ocular irritation. The compound II-4 was applied to the eyes of rabbits (New Zealand White Rabbit, NZW).\n0.1 ml of 1% compound II-4 in 0.01M PBS was applied to the eyes of the rabbits. That is, the test compound was applied to one eye (right) of each of nine rabbits in an amount of 0.1 ml/head according to the standard criteria for toxicity test of pharmaceutical and medicinal substances (a publication by Korean Food & Drug Administration, Vol. 1999-61, Dec. 22, 1999). After application of the test compound, the treated eyes of the rabbits were maintained at a state of being closed for about one second to prevent loss of the applied test compound. Then, the degree of damage in the cornea, the iris and the conjunctiva was investigated."}, "[5]": {"test": "Toxicity test upon single oral administration", "format": "in vivo", "conditions": "both sexes, mouse, in vivo, 2000 mg/kg; single oral administration, male and female mice; read-out: Lethal dose", "procedure": "(§1) The compound II-4 was evaluated for safety upon single oral administration. The compound II-4 was orally administered to five male and five female mice (SamtakoBioKorea Co. Ltd.) in a single dose of 2,000 mg/10 ml/kg. As a control, five male and five female mice were orally administered once with 0.1 M PBS of 10 ml/kg. During 14 days after administration, death, general pathogenic symptoms and change in body weight were not observed."}, "mice": {"tested_on": "mice", "test": "Toxicity test upon single oral administration", "format": "in vivo", "conditions": "single oral dose of 2,000 mg/10 ml/kg, 14 days, male and female mice", "procedure": "as §1"}, "rabbits": {"tested_on": "rabbits", "test": "Skin irritation test (patch test)", "format": "in vivo", "conditions": "0.5 ml of 1% in 0.01M PBS, 24 hrs patch, read 24 hrs and 72 hrs", "procedure": "0.5 ml of 1% compound II-4 in 0.01M PBS was applied to each hairless area (2.5 cm×2.5 cm) of the back of rabbits for 24 hrs once. Each of the treated sites was covered with a single sheet of gauge (10 cm×10 cm) to prevent loss of the test compound by contact and then an impermeable and unreactive solid film to prevent evaporation of the test compound. Then, the treated site was bound with an elastic bandage while not disturbing behavior of the rabbits, and the bandage was then held in place by a paper tape. 24 hrs and 72 hrs after application of the test compound, skin irritation was investigated."}},
  "note": "Peptide text beside a SMILES is read from it. * marks the point of attachment. X1 = O=C(CCC(=O)*)OC[C@H](O)[C@H]1OC(=O)C(O)=C1O",
  "data": [
    {"smiles": "C[C@@H](O)[C@H](NC(=O)[C@H](CCCCN)NC(=O)CCC(=O)OC[C@H](O)[C@H]1OC(=O)C(O)=C1O)C(=O)N[C@H](C(=O)N[C@@H](CCCCN)C(=O)N[C@@H](CO)C(=O)O)[C@@H](C)O", "note": "[II-4, 6-(succinyl-lysyl-threonyl-threonyl-lysyl-serine(SEQ ID NO:1))ascorbic acid] (X1-KTTKS-OH)", "values": [
      {"measurement": "Mean score", "setting": "male Hartley guinea pigs [1]", "value": "(0 + 0)/5"},
      {"measurement": "Photosensitization index", "setting": "male Hartley guinea pigs [1]", "value": 0},
      {"measurement": "Photosensitizer (conclusion)", "setting": "male Hartley guinea pigs [1]", "value": "not a photosensitizer"},
      {"measurement": "Stimulation index", "setting": "male Hartley guinea pigs [1]", "value": 0},
      {"measurement": "Evaluation", "setting": "male Hartley guinea pigs [2]", "value": "Practically non-irritating"},
      {"measurement": "Mean score", "setting": "male Hartley guinea pigs [2]", "value": 0},
      {"measurement": "Phototoxicity (conclusion)", "setting": "male Hartley guinea pigs [2]", "value": "rarely have phototoxicity"},
      {"measurement": "Total score/Site No", "setting": "male Hartley guinea pigs [2]", "value": "0 + 0/10"},
      {"measurement": "Total score/Site No.", "setting": "male Hartley guinea pigs [2]", "value": "0 + 0/10"},
      {"measurement": "Cytotoxicity", "setting": "[3]", "value": "did not showed cytotoxicity"},
      {"measurement": "Sensitization class", "setting": "male Hartley guinea pigs [4]", "value": "I"},
      {"measurement": "Sensitization rate (%)", "setting": "male Hartley guinea pigs [4]", "value": 0, "unit": "%"},
      {"measurement": "Sensitization score (total hrs)", "setting": "male Hartley guinea pigs [4]", "value": 0},
      {"measurement": "Skin reaction in induced regions", "setting": "male Hartley guinea pigs [4]", "value": "no skin reaction was observed"},
      {"measurement": "sensitization class", "setting": "male Hartley guinea pigs [4]", "value": "I"},
      {"measurement": "skin irritation rate", "setting": "male Hartley guinea pigs [4]", "value": 0, "unit": "%"},
      {"measurement": "Index of Acute Ocular Irritation (I.A.O.I)", "setting": "eyes of rabbits", "value": "zero"},
      {"measurement": "Conjunctiva redness and chemosis", "setting": "eyes of rabbits; day 1 to day 7", "value": "no sign of conjunctiva redness and chemosis was observed"},
      {"measurement": "LD50 at 336 h", "setting": "[5]", "value": "> 2000", "unit": "mg/kg"},
      {"measurement": "Death, general pathogenic symptoms and change in body weight", "setting": "mice", "value": "not observed"},
      {"measurement": "Skin irritation", "setting": "rabbits", "value": "very safe upon application to the skin"}
    ]}
  ]
}
